The values below come from patent US20240269276A1 (HARBOUR BIOMED SHANGHAI, published 2024).

Experiment [1] concerns the target T1, human CD73 on CHO-K1 cells overexpressing human CD73 (human, UniProt P21589 27-549).
T1 construct: whole, on cells; also called CHO-K1-hCD73
T1 sequence (looked up): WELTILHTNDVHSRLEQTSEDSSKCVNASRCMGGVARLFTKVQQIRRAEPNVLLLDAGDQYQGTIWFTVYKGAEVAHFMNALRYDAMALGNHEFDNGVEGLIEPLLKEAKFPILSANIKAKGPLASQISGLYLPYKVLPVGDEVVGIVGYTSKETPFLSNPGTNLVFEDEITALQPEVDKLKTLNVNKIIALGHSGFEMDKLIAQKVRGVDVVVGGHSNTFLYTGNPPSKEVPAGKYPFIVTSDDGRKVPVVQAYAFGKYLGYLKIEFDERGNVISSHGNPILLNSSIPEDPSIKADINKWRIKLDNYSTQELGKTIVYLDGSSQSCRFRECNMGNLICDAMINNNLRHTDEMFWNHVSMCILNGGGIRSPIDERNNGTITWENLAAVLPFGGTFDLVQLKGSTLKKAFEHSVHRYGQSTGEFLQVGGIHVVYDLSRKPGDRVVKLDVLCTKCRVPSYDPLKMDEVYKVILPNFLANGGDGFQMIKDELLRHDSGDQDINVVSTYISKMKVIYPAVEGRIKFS
The experiment can be described thus: flow cytometry on CHO-K1 cells overexpressing human CD73 (CHO-K1-hCD73) [continued) C]. As to the method:
(§1) In order to investigate the binding activity of the CD73×PD-L1 bispecific antibody to human CD73 and PD-L1, the binding experiment at the cellular level was performed using CHO-K1 cell strains overexpressing human CD73 or PD-L1 (CHO-K1-hCD73 or CHO-K1-hPD-L1). Briefly, the CHO-K1-hCD73 and CHO-K1-hPD-L1 cells were digested and resuspended in an F-12K complete medium, and the cell density was adjusted to 1×10⁶ cells/mL. The cells were seeded in a 96-well V-bottom plate (Corning, #3894) at 100 μL/well, followed by the addition at 100 μL/well and centrifugation at 500 g at 4° C. for 5 min, and then the supernatant was discarded. Antibodies were 3-fold diluted to a maximum final concentration of 50 nM, and a total of 8 concentrations were set. 100 μL of the diluted antibodies was added to the cells, and the cells were incubated away from light at 4° C for 1 h. Thereafter, the cells in each well were rinsed twice with 100 μL of pre-cooled PBS, and centrifuged at 500 g at 4° C. for 5 min, and then the supernatant was discarded. Then 100 μL of a fluorescent secondary antibody (goat anti-human IgG (H+L) secondary antibody, Alexa Fluor® 488 conjugate, Invitrogen, #A11013, diluted at the ratio of 1:1000) was added to each well. […] Finally, the cells in each well were resuspended in 200 μL of pre-cooled PBS, and the fluorescence signal values were read using a BD FACS CANTOII.
(A flow cytometer gives signals particle by particle.)

Experiment [2] concerns the target T1, human CD73 on CHO-K1 cells …. The experiment can be described thus: flow cytometry on CHO-K1 cells overexpressing human CD73 (CHO-K1-hCD73) [continued) D]. Here is the method:
as §1

The target is the same in experiment [3]. The experiment can be described thus: flow cytometry on CHO-K1 cells overexpressing human CD73 (CHO-K1-hCD73). As to the method:
In order to investigate the binding activity of the CD73×PD-L1 bispecific antibody to human CD73 and PD-L1, the binding experiment at the cellular level was performed using CHO-K1 cell strains overexpressing human CD73 or PD-L1 (CHO-K1-hCD73 or CHO-K1-hPD-L1). Briefly, the CHO-K1-hCD73 and CHO-K1-hPD-L1 cells were digested and resuspended in an F-12K complete medium, and the cell density was adjusted to 1×10⁶ cells/mL. The cells were seeded in a 96-well V-bottom plate (Corning, #3894) at 100 μL/well, followed by the addition at 100 μL/well and centrifugation at 500 g at 4° C. for 5 min, and then the supernatant was discarded. Antibodies were 3-fold diluted to a maximum final concentration of 50 nM, and a total of 8 concentrations were set. 100 μL of the diluted antibodies was added to the cells, and the cells were incubated away from light at 4° C for 1 h. Thereafter, the cells in each well were rinsed twice with 100 μL of pre-cooled PBS, and centrifuged at 500 g at 4° C. for 5 min, and then the supernatant was discarded. Then 100 μL of a fluorescent secondary antibody (goat anti-human IgG (H+L) secondary antibody, Alexa Fluor® 488 conjugate, Invitrogen, #A11013, diluted at the ratio of 1:1000) was added to each well. The plate was incubated away from light at 4° C. for 30 min. The cells in each well were then rinsed twice with 200 μL of pre-cooled PBS and centrifuged at 500 g at 4° C. for 5 min, and then the supernatant was discarded. Finally, the cells in each well were resuspended in 200 μL of pre-cooled PBS, and the fluorescence signal values were read using a BD FACS CANTOII.

For experiment [4], the target named is T2, human PD-L1 on CHO-K1 cells overexpressing human PD-L1 (human, UniProt Q9NZQ7 19-290).
T2 construct: whole, on cells; also called CHO-K1/hPD-L1; CHO-K1-hPD-L1
Nature of the experiment: flow cytometry on CHO-K1 cells overexpressing human PD-L1 (CHO-K1/hPD-L1) [continued) E]. As to the method:
(§2) In the example, in order to study the in vitro binding activity of the PD-L1 antigen-binding protein to human/cynomolgus monkey PD-L1, cell-level binding experiments were performed using CHO-K1 cell strains overexpressing human PD-L1 (CHO-K1/hPD-L1, GenScript, M00543) or CHO-K1 cell strains overexpressing cynomolgus monkey PD-L1 (CHO-K1/cynoPD-L1, GenScript, M00573). Briefly, the PD-L1 cells were digested and resuspended in an F-12K complete medium, and the cell density was adjusted to 1×10⁶ cells/mL. The cells were seeded in a 96-well V-bottom plate (Corning, 3894) at 100 μL/well, followed by the addition of the test antigen-binding proteins serially diluted 5-fold with concentrations that were twice the final concentrations at 100 μL/well. The mixtures were well mixed. The highest final concentration of the antigen-binding proteins was 100 nM. A total of 8 concentrations were set. An isotype antibody hIgG1 iso was used as a control. The cells were incubated away from light at 4° C. for 1 h. Thereafter, the cells in each well were rinsed twice with 100 μL of pre-cooled PBS, and centrifuged at 500 g at 4° C. for 5 min, and then the supernatant was discarded. Then 100 μL of a fluorescent secondary antibody (goat anti-human IgG (H+L) secondary antibody, Alexa Fluor 488 conjugate, Invitrogen, A11013, diluted at the ratio of 1:1000) was added to each well. The plate was incubated away from light at 4° C. for 30 min. The cells in each well were then rinsed twice with 200 μL of pre-cooled PBS and centrifuged at 500 g at 4° C. for 5 min, and then the supernatant was discarded. Finally, a pre-cooled PBS was added at 200 μL/well to resuspend the cells. Fluorescence signal values were read using a BD FACS CANTOII. Fluorescence signal values were read using a flow cytometer BD FACS CANTOII or FACS ACEA, and the data were processed and analyzed using FlowJo v10 (FlowJo, LLC) software. The data were processed and analyzed by plotting using GraphPad Prism 8 software, and binding curves, EC50 values and other parameters were acquired through four-parameter nonlinear fitting.

For experiment [5], the target named is T3, cynomolgus monkey PD-L1 on CHO-K1 cells overexpressing cynomolgus monkey PD-L1 (cynomolgus monkey, UniProt G7PSE7 19-290).
T3 construct: also called CHO-K1/cynoPD-L1; GenScript M00573
The experiment can be described thus: flow cytometry on CHO-K1 cells overexpressing cynomolgus monkey PD-L1 (CHO-K1/cynoPD-L1). Here is the method: as §2

The target of experiment [6] is T2, human PD-L1 on CHO-K1 cells …. Nature of the experiment: flow cytometry on CHO-K1 cells overexpressing human PD-L1 (CHO-K1/hPD-L1). As to the method: as §2
Experiment [7] shares this target. Nature of the experiment: flow cytometry on CHO-K1 cells overexpressing human PD-L1 (CHO-K1/hPD-L1) [continued) F]. As to the method: as §2
Experiment [8] shares this target. The experiment can be described thus: flow cytometry on CHO-K1 cells overexpressing human PD-L1 (CHO-K1-hPD-L1) [continued) E]. As to the method:
as §1

Experiment [9] deals with T4, human PD-L1 protein with histidine tag (ACROBiosystems #PD-1-H5258) (human, UniProt Q9NZQ7 19-238).
T4 construct: Bought protein; also called His PD-L1; human PD-L1 proteins; not shown: histidine tag
The experiment can be described thus: BLI (Octet Red96e); His-tagged human PD-L1 captured on HIS1K sensor, antibody at 60 nM; 1:1 fit. Here is the method: In this example, affinity determination was performed on the affinity-matured mutants of PR002082 using an Octet Red96e instrument. […] The binding kinetics between the antigen and the antibody was analyzed by the biolayer interferometry (BLI) technique using an Octet molecular interaction analyzer (ForteBio, model: Octet Red96e).
When the affinity of the antigen for the antibody was determined, the rotation speed of the sensor was set at 1000 rpm/min. The 2 HIS1K sensors placed in a column were first equilibrated for 10 min in test buffer, then His PD-L1 was captured with the HIS1K sensor at a capture height of 0.9-1.1 nm, then the HIS1K sensor was equilibrated for 2 min in the test buffer, then the HIS1K sensor was bound to the antigen-binding protein (60 nM and 0 nM) for 3 min, and finally the mixture was dissociated for 15 min. The HIS1K sensor was immersed in a 10 mM glycine solution (pH 1.5) for regeneration to elute the proteins bound to the sensor.
When data analysis was performed using Octet Data Analysis software (Fortebio, version 11.0), the reference signals were subtracted by a single reference mode (reference well), the data were fitted by a “1:1 Local/full fitting” method, and the kinetic parameters of the binding of the antigen to the antibody were calculated to obtain Kₒₙ (1/Ms) values, Kdis (1/s) values and KD (M) values.
In general terms: In BLI a coated tip is dipped into the sample, and binding shifts an interference pattern.

In experiment [10] the target is T3, cynomolgus monkey PD-L1 on CHO-K1 cells …. The experiment can be described thus: flow cytometry on CHO-K1 cells overexpressing cynomolgus monkey PD-L1 (CHO-K1/cynoPD-L1). As to the method:
as §2
This is another data set of the same source.

Experiment [11] deals with T2, human PD-L1 on CHO-K1 cells …. The experiment can be described thus: flow cytometry on CHO-K1 cells overexpressing human PD-L1 (CHO-K1/hPD-L1) [continued) D]. As to the method: as §2
For experiment [12] the target is unchanged. The experiment can be described thus: flow cytometry on CHO-K1 cells overexpressing human PD-L1 (CHO-K1-hPD-L1) [continued) F]. Here is the method: as §1

Where two headings read alike, the source gives them in different places.

T4 sequence (Q9NZQ7 19-238 limits assumed): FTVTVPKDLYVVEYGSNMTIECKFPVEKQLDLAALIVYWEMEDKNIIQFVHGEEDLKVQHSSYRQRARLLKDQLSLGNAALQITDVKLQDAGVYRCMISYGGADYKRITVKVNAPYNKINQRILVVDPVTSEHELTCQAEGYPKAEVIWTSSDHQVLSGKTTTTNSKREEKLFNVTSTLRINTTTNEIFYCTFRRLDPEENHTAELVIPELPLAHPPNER
T3 sequence (G7PSE7 entry or part of it limits assumed): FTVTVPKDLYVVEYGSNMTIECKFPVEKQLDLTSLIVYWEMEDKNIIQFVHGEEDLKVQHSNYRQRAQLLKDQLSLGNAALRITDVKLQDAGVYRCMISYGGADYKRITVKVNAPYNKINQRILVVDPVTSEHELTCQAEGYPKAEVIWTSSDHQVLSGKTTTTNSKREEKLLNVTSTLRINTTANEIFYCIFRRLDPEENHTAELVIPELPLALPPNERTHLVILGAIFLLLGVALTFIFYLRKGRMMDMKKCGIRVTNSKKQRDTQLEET
T2 sequence (Q9NZQ7 19-290): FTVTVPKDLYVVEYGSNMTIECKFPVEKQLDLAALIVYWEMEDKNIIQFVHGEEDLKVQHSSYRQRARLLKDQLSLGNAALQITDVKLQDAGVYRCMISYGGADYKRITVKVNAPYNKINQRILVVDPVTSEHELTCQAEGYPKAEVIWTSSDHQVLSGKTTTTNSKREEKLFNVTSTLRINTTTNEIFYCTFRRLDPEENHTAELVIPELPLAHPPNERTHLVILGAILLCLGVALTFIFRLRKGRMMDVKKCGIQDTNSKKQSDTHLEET

B1: PR000846 (antibody, human IgG1, kappa, L234A L235A, V domains shown)
VH: QVQLVESGGGVAQPGRSLSLSCAASGFTFSDYGMHWVRQAPGKGLEWVALIWYDASFEYYADSVKGRFSISRDNSKNTLYLQMNSLRAEDTAVYYCVRDAQWGSRLDYWGQGTLVTVSS
VL: KIVMTQSPATLSLSPGERATLSCRASQSVSRYLAWYQQKPGQAPRLLIYDASNRATGIPARFSGSGSGTDFTLTISSLEPEDFAVYYCQQRSNWIFTFGPGTKVDIKR
notes: Anti-CD73 IgG (human IgG1 constant region, human Ig kappa), PTM removed; also called anti-CD73 antibody PR000846; parent monoclonal antibody PR000846
For orientation: EC50 means the concentration giving half of the maximal effect. With B1, the concentration giving a half-maximal response (EC50) in experiment [1] amounted to 1.73 nM; in experiment [2], 0.737 nM; in experiment [3], 0.352 nM.

B2: PR002082 (antibody, human IgG1, V domains shown)
VH: QVQLVESGGGVVQPGMSLRLSCAASGFTFSSYGMYWVRQAPGKGQEWVAIIWYDGTKKHYADSVKGRFTISRDNSKNTLYLEMNSLRVEDTAVYYCAKNRAIFGVVPDASDIRGQGTMVTVSS
notes: HCAb; also called PTM variant of PR000960 (N28T, N31S)
The Kd is the free concentration of one partner at which half of the binding sites on the other are occupied at equilibrium, for simple one-to-one binding. Usually koff stands for the rate constant with which the complex falls apart. The term kon denotes the second-order rate constant of association. For B2, the 50% effective concentration (EC50) was 1.24 nM in experiment [4]; 1.52 nM in experiment [5]; 0.86 nM in [6]; 1.31 nM in experiment [7]; 1.17 nM in experiment [8]; 0.386 nM in experiment [10]. Moreover, the results for the EC50 in experiment [11] and in experiment [12] were 1.23 nM and 2.93 nM, respectively. The “Maximum MFI” value stood at 381000 MFI in [4]; 12100 MFI in [5]; 24500 MFI in experiment [6]; 430000 MFI in [7]; 387000 MFI in [11]. Binding in experiment [9] was characterised by a dissociation constant (Kd) of 5.61 nM. Besides, the dissociation rate constant (koff) in [9] stood at 0.00118 s⁻¹. In addition, the kon in [9] was found to be 210000 M⁻¹ s⁻¹.
